Measurements: article PMC11604724 (MedComm, 2024)

Columns and labels:
[1] = target: extracellular domain of SARS‐CoV‐2 (WT) spike (S‐ECD) for cryo-EM (SARS-CoV-2 WT, proline mutation at residue 986 | proline mutation at residue 987, N-linked glycans (Asn17, Asn122, Asn165 and others)); experiment: cryo-EM structure; settings: both partners purified
[2] = target: SARS‐CoV‐2 WT spike trimer protein (SARS-CoV-2, UniProt P0DTC2); experiment: BLI; settings: both partners purified

Binder	stoichiometry N [1] [Fabs per spike trimer]	Kd [2] [nM]
mAb 3711 (antibody, V domains shown) VH: EVQLVESGGGLVKPGRSLRLSCAASGFTFSDYYMSWIRQAPGKGLEWVSYISSSGSTIYYADSVRGRFTISRDNAKNSLYLQMNTLRAEDTAVYYCARGGWELRSLAGGYYGMDVWGQGTTVTVSS VL: DIVMTQTPFTLSASVGDRVTITCRASQGIRNDLGWYQQKPGKAPKCLIYAASSLLSGVPSRFSGSGSGTEFTLTISSLQPEDFATYYCLQHNSYPWTFGQGTKLEIK	3	–
mAb 26434 (antibody, V domains shown) VH: QVQLQQSGAEVKKPGASVKVSCKASGYTFSRYGISWVRQAPGQGLEWMGWISAYKGNTNYAQKFQGRVTMTTDTSTSTAYMELRSLRSDDTAVYYCARSPPDFLGWFDPWGQGTLVTVSS VL: LPVLTQPPSVSVSPGQTASITCSGDKLGDKFTCWYQQKPGQSPVQVIYQDTHRPSGIPERFSGSNSGNTATLTISGTQAVDEADYYCQAWDSSTVIFGGGTKLTVL	–	670
